Experimental data taken from publication PMC12618484 (Nature Communications, 2025).

T1: dihydrolipoamide dehydrogenase (DLD) (Homo sapiens, UniProt P09622)
T1 sequence (P09622 36-509): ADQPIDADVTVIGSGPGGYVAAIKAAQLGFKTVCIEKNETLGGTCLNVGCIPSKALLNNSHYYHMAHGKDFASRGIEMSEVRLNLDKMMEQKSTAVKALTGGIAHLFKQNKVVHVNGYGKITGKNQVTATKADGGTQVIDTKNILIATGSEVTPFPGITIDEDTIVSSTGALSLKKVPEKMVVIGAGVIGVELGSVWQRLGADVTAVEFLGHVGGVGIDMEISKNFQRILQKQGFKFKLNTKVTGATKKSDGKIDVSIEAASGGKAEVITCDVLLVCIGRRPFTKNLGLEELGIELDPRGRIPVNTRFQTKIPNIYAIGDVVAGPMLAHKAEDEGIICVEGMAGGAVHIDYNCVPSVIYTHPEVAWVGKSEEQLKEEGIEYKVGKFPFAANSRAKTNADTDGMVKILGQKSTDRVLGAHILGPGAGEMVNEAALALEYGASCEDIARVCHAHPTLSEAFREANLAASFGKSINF

B1: HA-tagged DLD-K430Q (enzyme, human, UniProt P09622 36-509, looked up)
chain: ADQPIDADVTVIGSGPGGYVAAIKAAQLGFKTVCIEKNETLGGTCLNVGCIPSKALLNNSHYYHMAHGKDFASRGIEMSEVRLNLDKMMEQKSTAVKALTGGIAHLFKQNKVVHVNGYGKITGKNQVTATKADGGTQVIDTKNILIATGSEVTPFPGITIDEDTIVSSTGALSLKKVPEKMVVIGAGVIGVELGSVWQRLGADVTAVEFLGHVGGVGIDMEISKNFQRILQKQGFKFKLNTKVTGATKKSDGKIDVSIEAASGGKAEVITCDVLLVCIGRRPFTKNLGLEELGIELDPRGRIPVNTRFQTKIPNIYAIGDVVAGPMLAHKAEDEGIICVEGMAGGAVHIDYNCVPSVIYTHPEVAWVGKSEEQLKEEGIEYKVGKFPFAANSRAQTNADTDGMVKILGQKSTDRVLGAHILGPGAGEMVNEAALALEYGASCEDIARVCHAHPTLSEAFREANLAASFGKSINF
B2: HA-tagged DLD-K430R (enzyme, human, UniProt P09622 36-509, looked up)
chain: ADQPIDADVTVIGSGPGGYVAAIKAAQLGFKTVCIEKNETLGGTCLNVGCIPSKALLNNSHYYHMAHGKDFASRGIEMSEVRLNLDKMMEQKSTAVKALTGGIAHLFKQNKVVHVNGYGKITGKNQVTATKADGGTQVIDTKNILIATGSEVTPFPGITIDEDTIVSSTGALSLKKVPEKMVVIGAGVIGVELGSVWQRLGADVTAVEFLGHVGGVGIDMEISKNFQRILQKQGFKFKLNTKVTGATKKSDGKIDVSIEAASGGKAEVITCDVLLVCIGRRPFTKNLGLEELGIELDPRGRIPVNTRFQTKIPNIYAIGDVVAGPMLAHKAEDEGIICVEGMAGGAVHIDYNCVPSVIYTHPEVAWVGKSEEQLKEEGIEYKVGKFPFAANSRARTNADTDGMVKILGQKSTDRVLGAHILGPGAGEMVNEAALALEYGASCEDIARVCHAHPTLSEAFREANLAASFGKSINF

Columns and labels:
[1] = biological target: T1, dihydrolipoamide dehydrogenase (DLD); assay: bio-layer interferometry and SPR; type: binding
cross-linking = biological target: the molecule itself; assay: cross-linking

Molecule	Kd [1] [nM]	stoichiometry N (cross-linking)
O=C(O)CCCCC(CCSCc1ccccc1)SCc1ccccc1 (stereo not drawn) [devimistat]	500 to 600	
B1		2
B2		2
